Test results reported in article PMC8823281 (Biochemistry, 2021).

Experiments:
Experiment in all cases: immunostaining of cells or tissue
[1] = target: plasma membrane-targeted version of rat VGLUT1 (Rattus norvegicus, UniProt Q62634)
[2] = target: plasma membrane-targeted version of rat VGLUT3 (Rattus norvegicus, UniProt Q7TSF2)
[3] = target: plasma membrane-targeted version of rat VGLUT2 (Rattus norvegicus, UniProt Q9JI12, point mutant)
plasma membrane-targeted version of rat VGLUT2, sequence (Q9JI12 whole entry, change not shown): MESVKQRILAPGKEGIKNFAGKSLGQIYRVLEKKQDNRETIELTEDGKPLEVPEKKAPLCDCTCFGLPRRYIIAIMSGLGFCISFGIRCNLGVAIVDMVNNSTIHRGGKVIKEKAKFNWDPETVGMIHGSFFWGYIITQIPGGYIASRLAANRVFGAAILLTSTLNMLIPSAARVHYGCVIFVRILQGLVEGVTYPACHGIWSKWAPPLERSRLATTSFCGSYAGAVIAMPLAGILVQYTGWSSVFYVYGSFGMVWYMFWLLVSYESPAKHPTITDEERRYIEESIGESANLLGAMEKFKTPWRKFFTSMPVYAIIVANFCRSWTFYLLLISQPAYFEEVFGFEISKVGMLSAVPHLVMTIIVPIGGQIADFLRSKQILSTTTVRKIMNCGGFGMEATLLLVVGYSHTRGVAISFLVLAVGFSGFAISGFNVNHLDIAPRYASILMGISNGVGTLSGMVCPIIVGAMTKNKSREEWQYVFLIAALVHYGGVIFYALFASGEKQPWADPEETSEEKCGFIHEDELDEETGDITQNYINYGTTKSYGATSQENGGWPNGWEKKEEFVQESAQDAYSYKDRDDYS

plasma membrane-targeted version of rat VGLUT1, sequence (Q62634 whole entry): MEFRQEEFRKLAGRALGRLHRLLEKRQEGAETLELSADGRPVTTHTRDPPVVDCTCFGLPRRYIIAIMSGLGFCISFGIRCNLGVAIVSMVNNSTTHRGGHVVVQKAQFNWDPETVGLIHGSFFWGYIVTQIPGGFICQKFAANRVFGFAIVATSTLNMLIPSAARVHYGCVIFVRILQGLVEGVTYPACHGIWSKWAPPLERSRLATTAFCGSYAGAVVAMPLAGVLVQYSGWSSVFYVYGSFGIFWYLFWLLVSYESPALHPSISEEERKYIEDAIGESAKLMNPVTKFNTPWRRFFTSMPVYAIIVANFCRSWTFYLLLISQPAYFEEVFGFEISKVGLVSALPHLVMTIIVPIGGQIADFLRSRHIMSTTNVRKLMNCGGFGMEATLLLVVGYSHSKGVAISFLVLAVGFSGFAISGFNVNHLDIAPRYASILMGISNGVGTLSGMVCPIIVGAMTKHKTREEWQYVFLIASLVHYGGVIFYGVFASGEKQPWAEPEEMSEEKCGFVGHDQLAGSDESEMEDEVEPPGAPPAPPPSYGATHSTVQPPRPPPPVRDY
plasma membrane-targeted version of rat VGLUT3, sequence (Q7TSF2 whole entry): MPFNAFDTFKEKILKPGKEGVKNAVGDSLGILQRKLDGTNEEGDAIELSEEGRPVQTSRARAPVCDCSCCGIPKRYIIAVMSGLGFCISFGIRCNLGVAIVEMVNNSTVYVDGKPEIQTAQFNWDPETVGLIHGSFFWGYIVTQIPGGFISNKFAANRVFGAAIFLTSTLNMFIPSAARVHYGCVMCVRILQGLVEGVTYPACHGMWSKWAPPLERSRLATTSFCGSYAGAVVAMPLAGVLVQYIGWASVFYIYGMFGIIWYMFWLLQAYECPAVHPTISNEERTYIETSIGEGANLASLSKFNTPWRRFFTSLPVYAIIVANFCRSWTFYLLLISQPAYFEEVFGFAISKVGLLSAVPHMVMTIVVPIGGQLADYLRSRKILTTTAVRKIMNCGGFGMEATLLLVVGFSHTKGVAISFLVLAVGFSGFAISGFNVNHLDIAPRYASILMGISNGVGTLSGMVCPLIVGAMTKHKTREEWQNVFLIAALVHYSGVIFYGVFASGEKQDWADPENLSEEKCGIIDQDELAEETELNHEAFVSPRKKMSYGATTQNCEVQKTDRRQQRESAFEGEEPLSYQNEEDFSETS

| Binder | binding result [1] | binding result [2] | binding result [3] |
| --- | --- | --- | --- |
| monoclonal antibody 9C6 (antibody, V domains shown) VH: EVMLVESGGGLVKPGGSLKISCAASGFTFSWYAMSWVRQTPEKRLEWVATISSAGSYTYYPDSVKGRFTISRDNAKNTLYLQMSSLRSEDTAMYYCSRVPILGRVDYWGQGTTLTVSS VL: QIVLTQSPAIMSASPGEKVTMTCSASSSVTYMHWYQQKSGTSPKTWIYDSSRLASGVPARFSGSGSGTSYSLTISSMEAEDAATYYCQHWSSNPPIFTFGSGTKLEIK | binds | no binding | binds |
| monoclonal antibody 8E11 (antibody, V domains shown) VH: EVMLVESGGGLVKPGGSLKISCAASGFTFSWYAMSWVRQTPEKRLEWVATISSAGSYTYYPDSVKGRFTISRDNAKNTLYLQMSSLRSEDTAMYYCSRVPILGRVDYWGQGTTLTVSS VL: QIVLTQSPAFMSASPGEKVTMTCSASSSVTYMNWYQQKSGTSPKTWIYDSSRLASGVPPRFSGSGSGTSYSLTISSMEAEDAATYYCQQWSSNPPIFTFGSGTKLEIK | binds | no binding | – |
